From publication PMC3555993, “Structural and Functional Analysis of the DEAF-1 and BS69 MYND Domains” (PLoS ONE, 2013) come the findings set out here.

Sequences and labels used below:
B1: SMRT corepressor peptide (residues 1111–1120 of SMRT) (peptide)
peptide: SNPPPLISSA
notes: silencing mediator of retinoid and thyroid receptor (SMRT), residues 1111-1120; Unlabelled peptide; also called SMRT peptide
B2: NCoR corepressor peptide (residues 1031–1040 of NCoR) (peptide)
peptide: RPPPPLIPSS
notes: nuclear receptor corepressor (NCoR), residues 1031-1040; Unlabelled peptide; also called NCoR peptide
B3: human DEAF-1 MYND domain (residues 501–544) (domain or fragment)
chain: GAMEQSCVNCGREAMSECTGCHKVNYCSTFCQRKDWKDHQHICGQSA
notes: N-terminal insertion of three amino acids GAM; DEAF-1, human, MYND domain, residues 501-544; 15N- or 15N/13C-labelled for NMR; also called short construct; source: E. coli BL21(DE3), purified (Ni-NTA, TEV cleavage, second Ni column, Superdex 75); not shown: poly-histidine tag, N-terminal, cleaved; thioredoxin, N-terminal, cleaved

Series [1] has as its target B3. The experiment in a line: NMR titration; 1 mM 15N-labeled DEAF-1 MYND titrated with unlabeled peptide (SMRT up to 9-fold, NCoR up to 5-fold molar excess); chemical shift perturbations fitted to a binding isotherm; fast exchange. The note with it: both partners purified.
Series [2] deals with the molecule itself. The experiment in a line: AUC; sedimentation velocity, concentration-dependent; continuous sedimentation distribution at 86 µM DEAF-1 MYND; fitted to a self-association model; dimer to monomers.

Turning to B1, the Kd in series [1] came to 5.3 ± 0.54 mM.

Turning to B2, the Kd in series [1] is 3.08 ± 0.12 mM.

In the case of B3, in series [2], binding was put at a Kd of 0.0005 ± 0.0001 mM and the “stoichiometry N” value worked out at 2.
